# Earlier results as cited in PMC9453958.
# Biological target: His64 (UniProt position 63, ILNNGHAFNVE)
# Assay: kinetics
# Conditions: wild-type zinc enzyme during catalysis
substance,measurement,value
Carbonic anhydrase II (HCA II) (Homo sapiens),pKa,7.2 ± 0.1
